Reference: patent publication US20260234255A1 (Genmab, published 2026)

Experiments:
[1] = molecular target: T1, cynomolgus monkey CD3 (cynomolgus monkey, UniProt Q95LI5 22-198); experiment: flow cytometry, cynomolgus monkey T cells (PBMCs)
T1 construct: CD3 endogenously expressed on T cells within cynomolgus monkey PBMCs
Description: Cynomolgus monkey PBMCs (Tebu-Bio, The Netherlands; cat. no. PBMCMFA-10) or purified human T cells were plated in polystyrene 96-well round-bottom plates. T cells were derived from human donor buffy coats (Sanquin, Amsterdam, The Netherlands) and isolated using the RosetteSep human T cell enrichment cocktail (Stemcell Technologies, France, cat. no. 15061) according to manufacturer's instructions. […] After washing twice in staining buffer, cells were incubated in 50 μL secondary R-PE-conjugated goat-anti-human IgG antibody at 4° C. for 30 min (1:400 dilution). After washing twice in staining buffer, T cells were stained for T-cell markers CD3 (1:100; Miltenyi biotec, clone 10D12, conjugated to APC), CD4 (1:50; eBioscience, clone OKT4, conjugated to APC-Cy7), CD8 (1:100; Biolegend, clone RPA-T8, conjugated to AF700) and T-cell activation markers CD69 (1:50; BD Biosciences, clone AB2439, conjugated to FITC), CD25 (1:50; eBioscience, clone BC96, conjugated to PE-Cy7) and CD279/PD1 (1:50; BD Biosciences, clone AEH12.2H7, conjugated to BV605). Single stained samples with Ultracomp beads (5 μL; Invitrogen, cat. no. 01-2222-42) were used for compensation adjustments of the flow cytometer. After 30 min of incubation at 4° C., cells were washed twice with staining buffer, resuspended in 100 μL staining buffer and analyzed using a FACS Fortessa (BD Biosciences). Data were processed using FlowJo (BD Biosciences).

[2] = molecular target: T2, human CD30 (human, UniProt P28908 19-595); experiment: flow cytometry, SUP-M2 cells (ALCL), range of 3 tests
T2 construct: also called huCD30; TNFRSF8
T2 sequence: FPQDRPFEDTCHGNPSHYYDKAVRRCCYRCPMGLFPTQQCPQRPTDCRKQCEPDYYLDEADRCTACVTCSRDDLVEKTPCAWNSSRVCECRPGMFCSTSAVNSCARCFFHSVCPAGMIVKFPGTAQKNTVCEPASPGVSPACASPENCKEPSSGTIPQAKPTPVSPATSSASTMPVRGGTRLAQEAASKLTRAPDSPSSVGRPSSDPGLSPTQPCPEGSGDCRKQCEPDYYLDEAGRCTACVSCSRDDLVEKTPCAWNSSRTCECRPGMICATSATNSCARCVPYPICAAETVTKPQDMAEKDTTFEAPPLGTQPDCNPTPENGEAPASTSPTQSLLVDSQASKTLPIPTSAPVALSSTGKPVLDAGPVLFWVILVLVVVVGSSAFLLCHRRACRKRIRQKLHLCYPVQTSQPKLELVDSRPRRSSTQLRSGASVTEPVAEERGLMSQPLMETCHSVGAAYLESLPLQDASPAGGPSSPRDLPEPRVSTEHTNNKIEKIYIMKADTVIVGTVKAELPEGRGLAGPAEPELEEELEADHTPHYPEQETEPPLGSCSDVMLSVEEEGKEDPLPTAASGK
Description: (§1) Cells (3×10⁴ cells/well) were incubated in polystyrene 96-well round-bottom plates (Greiner bio-one, cat. no. 650180) with serial dilutions of antibodies (range 0.0046 to 10 μg/mL in 3-fold dilution steps) in 50 μL staining buffer at 4° C. for 30 min. After washing twice in staining buffer, cells were incubated with 50 μL secondary antibody at 4° C. for 30 min. […] Next, cells were washed twice in staining buffer, resuspended in 100 μL staining buffer supplemented with TO-PRO-3 iodide (Thermo Fisher Scientific; cat. no. T3605; 1:8000 dilution) and analyzed on a FACSCelesta flow cytometer (BD Biosciences, USA). Live cells were gated based on FSC/SSC and absence of TOPRO-3 staining. Binding curves were analyzed by non-linear regression of log-transformed data (sigmoidal dose-response with variable slope, four parameters) using GraphPad Prism V7.02 software (GraphPad Software, San Diego, CA, USA).

[3] = molecular target: T3, cynomolgus monkey (Macaca fascicularis) CD30 (cynomolgus monkey, UniProt P28908 19-595 (human entry)); experiment: flow cytometry, HEK293 cells transfected with mfCD30
T3 construct: also called mfCD30
T3 chain: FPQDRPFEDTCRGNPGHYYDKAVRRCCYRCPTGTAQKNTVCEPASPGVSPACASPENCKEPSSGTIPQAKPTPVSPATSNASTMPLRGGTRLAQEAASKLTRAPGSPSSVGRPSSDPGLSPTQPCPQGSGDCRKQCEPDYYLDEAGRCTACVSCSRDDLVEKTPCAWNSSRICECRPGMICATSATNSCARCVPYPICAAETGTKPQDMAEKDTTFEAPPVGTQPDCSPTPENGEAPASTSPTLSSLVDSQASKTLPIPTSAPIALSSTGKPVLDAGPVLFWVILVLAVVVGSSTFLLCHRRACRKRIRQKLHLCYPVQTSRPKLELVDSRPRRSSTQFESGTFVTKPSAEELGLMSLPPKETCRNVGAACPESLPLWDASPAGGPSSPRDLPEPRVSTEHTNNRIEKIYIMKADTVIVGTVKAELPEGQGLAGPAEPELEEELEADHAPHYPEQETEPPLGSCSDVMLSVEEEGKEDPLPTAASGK
Description: Cells (3×10⁴ cells/well) were incubated in polystyrene 96-well round-bottom plates (Thermo Scientific, cat. no. 163320) with serial dilutions of antibodies (ranging from 0.0002 to 50 μg/mL in 4-fold dilution steps) in 50 μL staining buffer at 4° C. for 30 min. Experiments were performed in technical duplicate. After washing twice in staining buffer, cells were incubated in 50 μL secondary antibody at 4° C. for 30 min. As a secondary antibody, R-PE-conjugated goat-anti-human IgG (Jackson ImmunoResearch, UK; cat. no. 109⁻¹¹⁶-098) diluted 1:200 in staining buffer was used. Cells were washed twice in staining buffer, resuspended in 30 μL staining buffer containing 0.4% EDTA and the ToPro-3 viability marker (Invitrogen, cat. no. T3605) diluted 1:10,000. Cells were analyzed on an iQue Screener (Intellicyt Corporation, USA). Binding curves were analyzed using non-linear regression (sigmoidal dose-response with variable slope) using GraphPad Prism V9.0.0 software (GraphPad Software, San Diego, CA, USA).

[4] = molecular target: T2, human CD30; experiment: flow cytometry, HDLM-2 cells (HL), range of 3 tests
Description: as §1

[5] = molecular target: T2, human CD30; experiment: flow cytometry, SR-786 cells (ALCL), average of 3 tests
Description: as §1

[6] = molecular target: T2, human CD30; experiment: flow cytometry, JVM-2 cells (MCL), average of 3 tests
Description: as §1

T1 sequence (Q95LI5 22-198): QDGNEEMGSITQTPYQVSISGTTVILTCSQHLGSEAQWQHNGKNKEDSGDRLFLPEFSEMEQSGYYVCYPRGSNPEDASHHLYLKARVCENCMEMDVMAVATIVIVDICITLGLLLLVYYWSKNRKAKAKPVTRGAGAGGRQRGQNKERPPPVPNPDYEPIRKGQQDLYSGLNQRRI

B1: bsG1-huCD3-FEALxCD30-MDX060-FEAR (bispecific antibody, human IgG1, kappa, lambda)
heavy 1: not shown
light 1: not shown
heavy 2: QVQLQQWGAGLLKPSETLSLTCAVYGGSFSAYYWSWIRQPPGKGLEWIGDINHGGGTNYNPSLKSRVTISVDTSKNQFSLKLNSVTAADTAVYYCASLTAYWGQGSLVTVSSASTKGPSVFPLAPSSKSTSGGTAALGCLVKDYFPEPVTVSWNSGALTSGVHTFPAVLQSSGLYSLSSVVTVPSSSLGTQTYICNVNHKPSNTKVDKRVEPKSCDKTHTCPPCPAPEFEGGPSVFLFPPKPKDTLMISRTPEVTCVVVAVSHEDPEVKFNWYVDGVEVHNAKTKPREEQYNSTYRVVSVLTVLHQDWLNGKEYKCKVSNKALPAPIEKTISKAKGQPREPQVYTLPPSREEMTKNQVSLTCLVKGFYPSDIAVEWESNGQPENNYKTTPPVLDSDGSFFLYSRLTVDKSRWQQGNVFSCSVMHEALHNHYTQKSLSLSPG
light 2: DIQMTQSPTSLSASVGDRVTITCRASQGISSWLTWYQQKPEKAPKSLIYAASSLQSGVPSRFSGSGSGTDFTLTISSLQPEDFATYYCQQYDSYPITFGQGTRLEIKRTVAAPSVFIFPPSDEQLKSGTASVVCLLNNFYPREAKVQWKVDNALQSGNSQESVTEQDSKDSTYSLSSTLTLSKADYEKHKVYACEVTHQGLSSPVTKSFNRGEC
notes: also called bsG1-huCD3xCD30-MDX060
EC50 (read off the curve) [1]: ~0.4 µg/mL

B2: bsG1-huCD3-FEALxCD30-MDX060-FERR (bispecific antibody, human IgG1, kappa, lambda)
heavy 1: not shown
light 1: not shown
heavy 2: QVQLQQWGAGLLKPSETLSLTCAVYGGSFSAYYWSWIRQPPGKGLEWIGDINHGGGTNYNPSLKSRVTISVDTSKNQFSLKLNSVTAADTAVYYCASLTAYWGQGSLVTVSSASTKGPSVFPLAPSSKSTSGGTAALGCLVKDYFPEPVTVSWNSGALTSGVHTFPAVLQSSGLYSLSSVVTVPSSSLGTQTYICNVNHKPSNTKVDKRVEPKSCDKTHTCPPCPAPEFERGPSVFLFPPKPKDTLMISRTPEVTCVVVDVSHEDPEVKFNWYVDGVEVHNAKTKPREEQYNSTYRVVSVLTVLHQDWLNGKEYKCKVSNKALPAPIEKTISKAKGQPREPQVYTLPPSREEMTKNQVSLTCLVKGFYPSDIAVEWESNGQPENNYKTTPPVLDSDGSFFLYSRLTVDKSRWQQGNVFSCSVMHEALHNHYTQKSLSLSPG
light 2: DIQMTQSPTSLSASVGDRVTITCRASQGISSWLTWYQQKPEKAPKSLIYAASSLQSGVPSRFSGSGSGTDFTLTISSLQPEDFATYYCQQYDSYPITFGQGTRLEIKRTVAAPSVFIFPPSDEQLKSGTASVVCLLNNFYPREAKVQWKVDNALQSGNSQESVTEQDSKDSTYSLSSTLTLSKADYEKHKVYACEVTHQGLSSPVTKSFNRGEC
notes: Bispecific IgG1 made by controlled Fab-arm exchange; also called bsIgG1-huCD3-FEALxCD30-MDX060-FERR; bsG1-huCD3×CD30-MDX060
EC50 [2]: 0.134 to 0.223 µg/mL | binding result [3]: binds | EC50 [4]: 0.125 to 0.221 µg/mL | EC50 [5]: 0.328 µg/mL | EC50 [6]: 0.126 µg/mL
